Assay results taken from patent publication US20120064125A1 (priority 2009, published 2012).

Tested on: USA300 strain LAC biofilm
Assay: Protease and DNaseI treatment of USA300 titanium biofilms (CLSM, COMSTAT)
Format: cell-based, Staphylococcus aureus
Conditions: 2 day biofilm, Proteinase K 2 μg/mL or DNaseI 0.5 Units/mL
Description: FIGS. 4A-B. Protease and DNaseI treatment of USA300 titanium biofilms. Biofilms of LAC with plasmid pCM12 were grown for two days on titanium. Biofilms were either untreated or grown in the presence of Proteinase K or DNaseI. For treatments, Proteinase K was added to 2 μg/mL and DNaseI was added to 0.5 Units/mL to the flow cell media. At 6 and 22 hr, CLSM images were obtained and analyzed. (FIG. 4A) Representative CLSM image reconstructions generated from a z series. Each side of the image grid square is 20 μm. (FIG. 4B) COMSTAT analysis of images represented in terms of average thickness (μm) and biomass (μm^3/μm^2). Green triangles represent untreated biofilm, red circles represent DNaseI treatment, and black squares represent Proteinase K treatment. Error bars represent standard deviation.
Biofilm Assays. For biofilms grown on glass, flow cell biofilm growth, confocal scanning laser microscopy (CSLM), and computer image analysis were performed as previously described (Boles and Horswill, 2008). […] For biofilm dispersal tests, AIP type I (AIP-I) was synthesized and quantified using an intein system (Malone et al., 2007), and biofilm dispersal tests were performed as previously described (Boles and Horswill, 2008). […] LAC biofilm integrity was monitored at 6 hr and 22 hr, and COMSTAT analysis was performed to quantify the biofilm properties. […]

B1: proteinase K: Proteinase K (Research Productions International), protease added to flow cell media (protein, UniProt P06873 106-384, looked up)
Proteinase K: AAQTNAPWGLARISSTSPGTSTYYYDESAGQGSCVYVIDTGIEASHPEFEGRAQMVKTYYYSSRDGNGHGTHCAGTVGSRTYGVAKKTQLFGVKVLDDNGSGQYSTIIAGMDFVASDKNNRNCPKGVVASLSLGGGYSSSVNSAAARLQSSGVMVAVAAGNNNADARNYSPASEPSVCTVGASDRYDRRSSFSNYGSVLDIFGPGTSILSTWIGGSTRSISGTSMATPHVAGLAAYLMTLGKTTAASACRYIADTANKGDLSNIPFGTVNLLAYNNYQA
6 hr
  LAC biomass detached from the titanium surface: approximately 93%
22 hr
  LAC biomass detached from the titanium surface: all of the LAC biomass had detached
